# B1: BBSome complex member BBS5 (Homo sapiens), Q8N3I7 (parent)
# chain: MSVLDALWEDRDVRFDLSAQQMKTRPGEVLIDCLDSIEDTKGNNGDRGRLLVTNLRILWHSLALSRVNVSVGYNCILNITTRTANSKLRGQTEALYILTKCNSTRFEFIFTNLVPGSPRLFTSVMAVHRAYETSKMYRDFKLRSALIQNKQLRLLPQEHVYDKINGVWNLSSDQGNLGTFFITNVRIVWHANMNDSFNVSIPYLQIRSIKIRDSKFGLALVIESSQQSGGYVLGFKIDPVEKLQESVKEINSLHKVYSASPIFGVDYEMEEKPQPLEALTVEQIQDDVEIDSDGHTDAFVAYFADGNKQQDREPVFSEELGLAIEKLKDGFTLQGLWEVMS
# partner: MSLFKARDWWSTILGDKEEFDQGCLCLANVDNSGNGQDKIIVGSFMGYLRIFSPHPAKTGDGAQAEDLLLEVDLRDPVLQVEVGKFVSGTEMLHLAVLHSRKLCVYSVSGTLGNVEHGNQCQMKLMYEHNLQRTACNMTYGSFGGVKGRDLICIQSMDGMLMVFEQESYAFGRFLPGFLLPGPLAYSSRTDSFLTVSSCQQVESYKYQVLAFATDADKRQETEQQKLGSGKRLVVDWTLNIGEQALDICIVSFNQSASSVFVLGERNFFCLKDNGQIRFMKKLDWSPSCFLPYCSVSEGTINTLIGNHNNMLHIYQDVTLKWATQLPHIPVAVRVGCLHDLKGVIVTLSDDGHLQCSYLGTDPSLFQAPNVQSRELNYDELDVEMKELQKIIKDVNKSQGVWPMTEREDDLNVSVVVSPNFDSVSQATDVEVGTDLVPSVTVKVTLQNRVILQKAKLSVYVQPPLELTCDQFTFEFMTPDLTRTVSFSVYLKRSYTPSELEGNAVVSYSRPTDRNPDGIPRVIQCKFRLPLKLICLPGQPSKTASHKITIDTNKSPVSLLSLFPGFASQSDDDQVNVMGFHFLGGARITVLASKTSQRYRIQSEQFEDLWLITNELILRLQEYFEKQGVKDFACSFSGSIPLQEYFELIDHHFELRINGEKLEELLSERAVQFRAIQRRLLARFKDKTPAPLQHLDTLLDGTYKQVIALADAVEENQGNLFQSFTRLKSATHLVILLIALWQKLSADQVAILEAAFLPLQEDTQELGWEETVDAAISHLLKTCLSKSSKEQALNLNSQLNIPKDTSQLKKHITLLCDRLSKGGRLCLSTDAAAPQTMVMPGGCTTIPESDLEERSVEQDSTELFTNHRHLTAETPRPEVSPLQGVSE
# Variants of: B1
# Conditions: with pthb1_human BBS9, Q3SYG4
row,Variant,effect of a mutation on the interaction
1,MSVLDALWEDRDVRFDLSAQQMKTRPGEVLIDCLDSIEDTKGNNGDRGRLLVTNLRILWHSLALSRVNVSVGYNCILNITTRTANSKLRGQTEALYILTKCNSTRFEFIFTNLVPGSPRLFTSVMAVHRAYETSKMYRDFKLRSALIQNKQLRLLPQEHVYDKINGVWNLSSDQGNLGTFFITNVRIVWHANMNDSFNVSIPYLQIRSIKIRDSKFDLALVIESSQQSGGYVLGFKIDPVEKLQESVKEINSLHKVYSASPIFGVDYEMEEKPQPLEALTVEQIQDDVEIDSDGHTDAFVAYFADGNKQQDREPVFSEELGLAIEKLKDGFTLQGLWEVMS [G217D],disrupting interaction strength
2,MSVLDKLWEDRDVRFDLSAQQMKTRPGEVLIDCLDSIEDTKGNNGDRGRLLVTNLRILWHSLALSRVNVSVGYNCILNITTRTANSKLRGQTEALYILTKCNSTRFEFIFTNLVPGSPRLFTSVMAVHRAYETSKMYRDFKLRSALIQNKQLRLLPQEHVYDKINGVWNLSSDQGNLGTFFITNVRIVWHANMNDSFNVSIPYLQIRSIKIRDSKFGLALVIESSQQSGGYVLGFKIDPVEKLQESVKEINSLHKVYSASPIFGVDYEMEEKPQPLEALTVEQIQDDVEIDSDGHTDAFVAYFADGNKQQDREPVFSEELGLAIEKLKDGFTLQGLWEVMS [A6K],with no effect
3,MSVLDALWEDRDVRFDLSAQQMKTRPGEVLIDCLDSIEDTKGNNGDRGRLLVTNLRILWESLALSRVNVSVGYNCILNITTRTANSKLRGQTEALYILTKCNSTRFEFIFTNLVPGSPRLFTSVMAVHRAYETSKMYRDFKLRSALIQNKQLRLLPQEHVYDKINGVWNLSSDQGNLGTFFITNVRIVWHANMNDSFNVSIPYLQIRSIKIRDSKFGLALVIESSQQSGGYVLGFKIDPVEKLQESVKEINSLHKVYSASPIFGVDYEMEEKPQPLEALTVEQIQDDVEIDSDGHTDAFVAYFADGNKQQDREPVFSEELGLAIEKLKDGFTLQGLWEVMS [H60E],with no effect
4,MSVLDALWEDRDVRFDLSAQQMKTRPGEVLIDCLASIEDTKGNNGDRGRLLVTNLRILWHSLALSRVNVSVGYNCILNITTRTANSKLRGQTEALYILTKCNSTRFEFIFTNLVPGSPRLFTSVMAVHRAYETSKMYRDFKLRSALIQNKQLRLLPQEHVYDKINGVWNLSSDQGNLGTFFITNVRIVWHANMNDSFNVSIPYLQIRSIKIRDSKFGLALVIESSQQSGGYVLGFKIDPVEKLQESVKEINSLHKVYSASPIFGVDYEMEEKPQPLEALTVEQIQDDVEIDSDGHTDAFVAYFADGNKQQDREPVFSEELGLAIEKLKDGFTLQGLWEVMS [D35A],with no effect
5,MSVLDALWEDRDVRFDLSAQQMKTRPGEVLIDCLDSIEDTKGNNGDRGRLLVTNLRILWHSLALSRVNVSVGYNCILNITTRTANSKLRGQTEALYILTKCNSTRFEFIFTNLVPGSPRLFTSVMAVHRAYETSKMYRDFKLRSALIQNKQLRLLPQEHVYDKINGVWNLSSDQGNLGTFFITNVRIEWHANMNDSFNVSIPYLQIRSIKIRDSKFGLALVIESSQQSGGYVLGFKIDPVEKLQESVKEINSLHKVYSASPIFGVDYEMEEKPQPLEALTVEQIQDDVEIDSDGHTDAFVAYFADGNKQQDREPVFSEELGLAIEKLKDGFTLQGLWEVMS [V188E],with no effect
6,MSVLDALWEDRDVRFDLSAQQMKTRPGEVLIDCLDSIEDTKGNNGDRGRLLVTNLRILWHSLALSRVNVSVGYNCILNITTRTANSKLRGQTEALYILTKCNSTRFEFIFTNLVPGSPRLFTSVMAEHRAYETSKMYRDFKLRSALIQNKQLRLLPQEHVYDKINGVWNLSSDQGNLGTFFITNVRIVWHANMNDSFNVSIPYLQIRSIKIRDSKFGLALVIESSQQSGGYVLGFKIDPVEKLQESVKEINSLHKVYSASPIFGVDYEMEEKPQPLEALTVEQIQDDVEIDSDGHTDAFVAYFADGNKQQDREPVFSEELGLAIEKLKDGFTLQGLWEVMS [V127E],with no effect
7,MSVLDALWEDRDVRFDLSAQQMKTRPGEVLIDCLDSIEDTKGNNGDRGRLLVTNLRILWHSLALSRVAVSVGYNCILNITTRTANSKLRGQTEALYILTKCNSTRFEFIFTNLVPGSPRLFTSVMAVHRAYETSKMYRDFKLRSALIQNKQLRLLPQEHVYDKINGVWNLSSDQGNLGTFFITNVRIVWHANMNDSFNVSIPYLQIRSIKIRDSKFGLALVIESSQQSGGYVLGFKIDPVEKLQESVKEINSLHKVYSASPIFGVDYEMEEKPQPLEALTVEQIQDDVEIDSDGHTDAFVAYFADGNKQQDREPVFSEELGLAIEKLKDGFTLQGLWEVMS [N68A],disrupting interaction strength
8,MSVLDALWEDRDVRFDLSAQQMKTRKGEVLIDCLDSIEDTKGNNGDRGRLLVTNLRILWHSLALSRVNVSVGYNCILNITTRTANSKLRGQTEALYILTKCNSTRFEFIFTNLVPGSPRLFTSVMAVHRAYETSKMYRDFKLRSALIQNKQLRLLPQEHVYDKINGVWNLSSDQGNLGTFFITNVRIVWHANMNDSFNVSIPYLQIRSIKIRDSKFGLALVIESSQQSGGYVLGFKIDPVEKLQESVKEINSLHKVYSASPIFGVDYEMEEKPQPLEALTVEQIQDDVEIDSDGHTDAFVAYFADGNKQQDREPVFSEELGLAIEKLKDGFTLQGLWEVMS [P26K],with no effect
9,MSVLDALWEDRDVRFDLSAQQMKTRPGEVLIDCLDSIEDTKGNNGDRGRLLVTNLRILWHSLALSRVNVSVGYNCILNITTRTANSKLRGQTEALYILTKCNSTRFEFIFTNLVPGSPRLFTSVMAVHRAYETSKMYRDFKLRSALIQNKQLRLLPQEHVYDKINGVWNLSSDQGNLGTFFITNVRIVWHANMNDSFNVSIPYLQIRSIKIRDSEFGLALVIESSQQSGGYVLGFKIDPVEKLQESVKEINSLHKVYSASPIFGVDYEMEEKPQPLEALTVEQIQDDVEIDSDGHTDAFVAYFADGNKQQDREPVFSEELGLAIEKLKDGFTLQGLWEVMS [K215E],with no effect

# Source: IntAct's records for PubMed 29039417
